Laboratory results as given in patent US20200024360A1 (Janssen / Centocor, published 2020).
Positions count from the first letter of the chain named. In names and notes the source's numbering stands.

Key:
[1] = biological target: T1, human CD3ε on primary human T cells (human, UniProt P07766 23-207); assay: FACS, primary human T cells
T1 construct: whole, on cells; Part of the TCR-CD3 complex on the cells; also called cell-surface CD3ε; CD3E

[2] = biological target: T2, human PSMA (prostate specific membrane antigen), full length (human, UniProt Q04609 1-750); assay: flow cytometry, bispecific antibody titrated on LNCaP cells (human PSMA), anti-human kappa light chain PE
T2 construct: On LNCaP or C4-2B cells (endogenous) or transduced HEK293F cells; also called FOLH1_HUMAN; hPSMA
Protocol: (§1) PSMA×CD3 bispecific antibodies were tested for binding to PSMA positive cell lines LNCAP, human PSMA-HEK, Chimpanzee-PSMA-HEK and Cynomolgous monkey PSMA-HEK. To assess the binding capabilities of the PSMA bispecific antibodies, the cell-binding assay was utilized (described previously). Briefly, PSMA expressing tumor cells are bound by bispecific antibodies at known concentrations and the bound antibody is detected by an anti-human kappa light chain PE conjugated detection reagent (Invitrogen). The Mean Fluorescents Intensity (MFI) is the measure of bound bispecific antibody. The MFI is converted to a relative EC₅₀. EC₅₀ is a commonly used dose-response curve, where the half maximal effective concentration or the EC₅₀ point is defined as the inflection point of the curve. EC₅₀ s were determined by measuring cell bound bispecific and known concentrations. […] The dose response curves were then diluted down to that of background or no bispecific binding. The inflection point of this curve reflects the EC₅₀ point. The calculated EC₅₀ is determined by taking the ug/ml amount of bispecific antibody at the EC₅₀ point and converting it to a molarity value based on the MW of the bispecific antibody. Bispecific antibodies were normalized for protein concentration and then incubated with the same number of cells expressing either human or cyno PSMA. The MFI at each concentration was collected by flow cytometry and plotted as a function of concentration. Data was transformed via log 10 and then plotted. Nonlinear regression of binding curves was done to determine EC₅₀ s. These relative values were used for ranking PSMA binding to target cells.

[3] = biological target: T2, human PSMA (prostate specific membrane …); assay: flow cytometry, bispecific antibody titrated on human PSMA HEK cells, anti-human kappa light chain PE
Protocol: as §1, with “The MFI at each concentration was collected by flow cytometry and plotted as a function of concentration. Data was transformed via log 10 and then plotted. Nonlinear regression of binding curves was done to determine EC₅₀ s. These relative values were used for ranking PSMA binding to target cells.” left out

[4] = biological target: T2, human PSMA (prostate specific membrane …); assay: flow cytometry, bispecific antibody titrated on LNCaP cells (human PSMA), anti-human kappa light chain PE; remark: listed apart in the source
Protocol: as §1, with “The MFI at each concentration was collected by flow cytometry and plotted as a function of concentration. Data was transformed via log 10 and then plotted. Nonlinear regression of binding curves was done to determine EC₅₀ s. These relative values were used for ranking PSMA binding to target cells.” left out

[5] = biological target: T3, recombinant chimpanzee PSMA extracellular domain (ECD) protein (Pan troglodytes, UniProt Q04609 44-750 (human entry)); assay: SPR ProteOn
T3 construct: also called Chimp PSMA ECD; PSMG8
T3 chain: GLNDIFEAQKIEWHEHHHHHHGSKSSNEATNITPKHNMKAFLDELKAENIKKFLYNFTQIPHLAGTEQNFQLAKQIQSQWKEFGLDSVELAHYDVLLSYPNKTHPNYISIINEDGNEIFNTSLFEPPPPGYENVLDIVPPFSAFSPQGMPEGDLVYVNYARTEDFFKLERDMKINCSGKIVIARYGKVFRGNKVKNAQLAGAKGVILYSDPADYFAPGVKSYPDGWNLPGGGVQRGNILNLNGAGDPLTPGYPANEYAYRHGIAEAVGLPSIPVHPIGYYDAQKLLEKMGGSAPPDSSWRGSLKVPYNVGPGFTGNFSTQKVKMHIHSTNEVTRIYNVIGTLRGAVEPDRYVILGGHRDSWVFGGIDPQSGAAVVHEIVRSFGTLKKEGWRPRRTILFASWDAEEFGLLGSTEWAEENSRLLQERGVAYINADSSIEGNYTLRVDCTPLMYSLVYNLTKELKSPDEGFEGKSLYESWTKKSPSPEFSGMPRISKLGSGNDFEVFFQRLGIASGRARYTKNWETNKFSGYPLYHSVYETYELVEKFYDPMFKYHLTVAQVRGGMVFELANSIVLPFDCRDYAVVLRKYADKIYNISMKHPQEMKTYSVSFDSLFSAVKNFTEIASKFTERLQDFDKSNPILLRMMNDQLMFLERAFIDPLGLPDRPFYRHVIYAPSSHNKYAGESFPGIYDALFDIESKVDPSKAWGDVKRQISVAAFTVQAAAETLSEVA

[6] = biological target: T4, recombinant human PSMA extracellular domain (ECD) protein (human, UniProt Q04609 44-750); assay: SPR ProteOn
T4 construct: also called human PSMA ECD

[7] = biological target: T5, recombinant cynomolgous monkey PSMA extracellular domain (ECD) protein (Macaca fascicularis, UniProt Q04609 48-750 (human entry), biotin on the Avi tag); assay: SPR ProteOn
T5 construct: also called cyno PSMA ECD; PSMG1
T5 chain: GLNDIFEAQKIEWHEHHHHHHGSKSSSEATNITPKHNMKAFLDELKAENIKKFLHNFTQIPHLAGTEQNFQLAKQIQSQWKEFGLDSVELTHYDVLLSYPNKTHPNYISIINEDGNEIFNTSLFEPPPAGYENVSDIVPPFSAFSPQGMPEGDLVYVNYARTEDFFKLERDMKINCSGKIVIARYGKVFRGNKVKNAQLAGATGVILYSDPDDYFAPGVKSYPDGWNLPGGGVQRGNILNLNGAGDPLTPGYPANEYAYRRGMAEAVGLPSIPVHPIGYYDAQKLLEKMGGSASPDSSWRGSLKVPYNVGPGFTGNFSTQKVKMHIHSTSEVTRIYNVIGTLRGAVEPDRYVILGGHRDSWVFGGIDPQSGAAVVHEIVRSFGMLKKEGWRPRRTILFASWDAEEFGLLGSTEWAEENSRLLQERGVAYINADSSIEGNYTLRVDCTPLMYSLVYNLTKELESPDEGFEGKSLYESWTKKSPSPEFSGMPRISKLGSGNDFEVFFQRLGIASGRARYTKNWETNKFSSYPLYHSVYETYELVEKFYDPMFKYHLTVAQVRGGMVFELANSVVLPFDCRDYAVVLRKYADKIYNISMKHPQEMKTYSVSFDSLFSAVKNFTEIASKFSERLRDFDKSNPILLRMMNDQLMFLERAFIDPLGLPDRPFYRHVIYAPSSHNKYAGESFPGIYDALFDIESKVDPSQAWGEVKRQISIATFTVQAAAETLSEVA

T1 sequence (P07766 23-207): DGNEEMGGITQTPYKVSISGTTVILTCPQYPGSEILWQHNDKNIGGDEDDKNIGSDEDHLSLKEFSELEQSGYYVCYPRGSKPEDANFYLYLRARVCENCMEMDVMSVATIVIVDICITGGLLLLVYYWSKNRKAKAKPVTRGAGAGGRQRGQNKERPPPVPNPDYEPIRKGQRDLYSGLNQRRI
T2 sequence (Q04609 whole entry): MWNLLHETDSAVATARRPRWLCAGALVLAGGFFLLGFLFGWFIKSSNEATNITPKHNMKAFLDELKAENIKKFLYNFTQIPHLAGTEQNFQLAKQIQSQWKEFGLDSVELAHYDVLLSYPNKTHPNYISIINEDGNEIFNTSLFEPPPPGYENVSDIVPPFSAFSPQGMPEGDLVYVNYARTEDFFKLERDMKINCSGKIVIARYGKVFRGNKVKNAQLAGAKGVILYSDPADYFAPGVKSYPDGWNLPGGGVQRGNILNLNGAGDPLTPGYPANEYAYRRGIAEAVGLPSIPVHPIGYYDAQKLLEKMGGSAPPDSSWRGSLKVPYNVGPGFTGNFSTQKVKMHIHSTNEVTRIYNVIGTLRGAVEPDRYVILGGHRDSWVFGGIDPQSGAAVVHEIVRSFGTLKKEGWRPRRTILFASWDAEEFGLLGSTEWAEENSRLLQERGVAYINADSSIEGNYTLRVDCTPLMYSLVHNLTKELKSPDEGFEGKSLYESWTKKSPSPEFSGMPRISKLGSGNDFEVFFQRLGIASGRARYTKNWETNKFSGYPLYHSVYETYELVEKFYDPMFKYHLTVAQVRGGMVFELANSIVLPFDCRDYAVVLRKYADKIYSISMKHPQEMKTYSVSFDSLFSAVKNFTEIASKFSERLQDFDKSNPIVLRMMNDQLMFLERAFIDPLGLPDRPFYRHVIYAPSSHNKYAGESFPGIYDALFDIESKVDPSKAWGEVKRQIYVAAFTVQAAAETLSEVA

B1: CD3B144 (antibody, V domains shown)
VH: EVQLVESGGGLVQPGGSLRLSCAASGFTFNTYAMNWVRQAPGKGLEWVARIRSKYNNYATYYAASVKGRFTISRDDSKNSLYLQMNSLKTEDTAVYYCARHGNFGNSYVSWFAYWGQGTLVTVSS
VL: QSVLTQPPSVSAAPGQKVTISCRSSTGAVTTSNYANWVQQLPGTAPKGLIGGTNKRAPGIPDRFSGSKSGTSATLGITGLQTGDEADYYCALWYSNLWVFGGGTKLTVL
notes: also called CD3H141/CD3L64
binding result [1]: no binding (tested: 10 µg/ml (normalised))

B2: CD3B152 (antibody, V domains shown)
VH: B1 VH with V5L, A64D, D76N, S80T, K89R, T90A, A99V, R100K
VL: B1 VL
notes: also called CD3H143/CD3L64
binding result [1]: no binding (tested: 10 µg/ml (normalised))

B3: PS3B7 (M59) (bispecific antibody, human IgG4 S228P, kappa, lambda, F234A L235A)
heavy chain, PSMA arm (PSMB87, Fab PSMB58): not shown
light chain, PSMA arm (PSMB87, Fab PSMB58): not shown
heavy chain, CD3 arm (CD3B217): EVQLLESGGGLVQPGGSLRLSCAASGFTFNTYAMNWVRQAPGKGLEWVARIRSKYNNYATYYADSVKGRFTISRDNSKNTLYLQMNSLRAEDTAVYYCVKHGNFGNSYVSWFAYWGQGTLVTVSSASTKGPSVFPLAPCSRSTSESTAALGCLVKDYFPEPVTVSWNSGALTSGVHTFPAVLQSSGLYSLSSVVTVPSSSLGTKTYTCNVDHKPSNTKVDKRVESKYGPPCPPCPAPEAAGGPSVFLFPPKPKDTLMISRTPEVTCVVVDVSQEDPEVQFNWYVDGVEVHNAKTKPREEQFNSTYRVVSVLTVLHQDWLNGKEYKCKVSNKGLPSSIEKTISKAKGQPREPQVYTLPPSQEEMTKNQVSLTCLVKGFYPSDIAVEWESNGQPENNYKTTPPVLDSDGSFLLYSKLTVDKSRWQEGNVFSCSVMHEALHNHYTQKSLSLSLGK
light chain, CD3 arm (CD3B217): QAVVTQEPSLTVSPGGTVTLTCRSSTGAVTTSNYANWVQQKPGQAPRGLIGGTNKRAPGTPARFSGSLLGGKAALTLSGAQPEDEAEYYCALWYSNLWVFGGGTKLTVLGQPKAAPSVTLFPPSSEELQANKATLVCLISDFYPGAVTVAWKADSSPVKAGVETTTPSKQSNNKYAASSYLSLTPEQWKSHRSYSCQVTHEGSTVEKTVAPTECS
notes: also called PSMB87 x CD3B217
EC50 (read off the curve) [2]: ~1 µg/mL | EC50 (read off the curve) [3]: ~1 µg/mL | EC50 (read off the curve) [4]: ~1 µg/mL

B4: PS3B12 (M87) (bispecific antibody, human IgG4 S228P, kappa, lambda, F234A L235A)
heavy chain, PSMA arm (PSMB130): not shown
light chain, PSMA arm (PSMB130): not shown
heavy chain, CD3 arm (CD3B217): B3 heavy chain, CD3 arm (CD3B217)
light chain, CD3 arm (CD3B217): B3 light chain, CD3 arm (CD3B217)
notes: also called PSMB130 x CD3B217
EC50 (read off the curve) [4]: ~1 µg/mL

B5: PS3B8 (M81) (bispecific antibody, human IgG4 S228P, kappa, lambda, F234A L235A)
heavy chain, PSMA arm (PSMB126): not shown
light chain, PSMA arm (PSMB126): not shown
heavy chain, CD3 arm (CD3B217): B3 heavy chain, CD3 arm (CD3B217)
light chain, CD3 arm (CD3B217): B3 light chain, CD3 arm (CD3B217)
notes: also called PSMB126 x CD3B217
EC50 (read off the curve) [2]: ~0.1 µg/mL

B6: PSMB130 (antibody, human IgG4 S228P, kappa, F234A L235A, V domains shown)
VH: QVQLVQSGAEVKKPGSSVKVSCKASGGTFKSYDISWVRQAPGQGLEWMGGIIPIEGTANYAQKFQGRVTITADESTSTAYMELSSLRSEDTAVYYCARDYPAGYGFDYWGQGTLVTVSS
VL: not shown
notes: IgG4 with S228P, F234A, L235A; also called mAb of Fab PSMB86
Kd [5]: 31.7 nM | Kd [6]: 29.6 nM

B7: PSMB123 (antibody, human IgG4 S228P, kappa, F234A L235A, V domains shown)
VH: EVQLVQSGAEVKKPGESLKISCKGSGYSFTSYWIGWVRQMPGKGLEWMGIIYPGDSDTRYSPSFQGQVTISADKSISTAYLQWSSLKASDTAMYYCARGLPIWYLDYWGQGTLVTVSS
VL: EIVLTQSPATLSLSPGERATLSCRASQSVASDLAWYQQKPGQAPRLLIYFASNRATGIPARFSGSGSGTDFTLTISSLEPEDFAVYYCQQSITWPFTFGQGTKVEIKR
notes: IgG4 with S228P, F234A, L235A; also called mAb of Fab PSMB55
Kd [7]: 66.7 nM | Kd [5]: 14.3 nM | Kd [6]: 9.03 nM

B8: PSMB127 (antibody, human IgG4 S228P, kappa, F234A L235A, V domains shown)
VH: EVQLLESGGGLVQPGGSLRLSCAASGFTFKSDAMHWVRQAPGKGLEWVSEISGSGGYTNYADSVKGRFTISRDNSKNTLYLQMNSLRAEDTAVYYCARDSYDSSLYVGDYFDYWGQGTLVTVSS
VL: B7 VL with A30S, D32Y, F50D, S91R, I92S, T93N, F96L
notes: IgG4 with S228P, F234A, L235A; also called mAb of Fab PSMB83
Kd [7]: 6.68 nM | Kd [5]: 12.8 nM | Kd [6]: 12 nM
